Patent US20240209076A1 (KODIAK SCIENCES, published 2024)
Positions count from the first letter of the chain named.

B1: anti-IL-6 Fab, heavy chain T63D (Fab, V domains shown)
VH: EVQLVESGGGLVQPGGSLRLSCAASGFTFSPFAMSWVRQAPGKGLEWVAKISPGGSWTYYSDDVTGRFTFSLDTSKSTAYLQMNSLRAEDTAVYYCARQLWGYYALDIWGQGTLVTVSS
VL: DIQLTQSPSSLSASVGDRVTITCSASISVSYMYWYQQKPGKAPKLLIYDMSNLASGVPSRFSGSGSGTDFTLTISSLQPEDFATYYCMQWSGYPYTFGQGTKVEIK
notes: see m39
B2: anti-IL-6 Fab, heavy chain V48L (Fab, V domains shown)
VH: B1 VH with V48L, D63T
VL: B1 VL
notes: see m39
B3: anti-IL-6 Fab, light chain M88V (Fab, V domains shown)
VH: B1 VH with D63T
VL: B1 VL with M88V
notes: see m39
B4: anti-IL-6 Fab, heavy chain T65I (Fab, V domains shown)
VH: B1 VH with D63T, T65I
VL: B1 VL
notes: see m39
B5: anti-IL-6 Fab, heavy chain T65A (Fab, V domains shown)
VH: B1 VH with D63T, T65A
VL: B1 VL
notes: see m39
B6: anti-IL-6 Fab, heavy chain T63G (Fab, V domains shown)
VH: B1 VH with D63G
VL: B1 VL
notes: see m39
B7: anti-IL-6 Fab, light chain M32L (Fab, V domains shown)
VH: B1 VH with D63T
VL: B1 VL with M32L
notes: see m39
B8: anti-IL-6 Fab, light chain M32V (Fab, V domains shown)
VH: B1 VH with D63T
VL: B1 VL with M32V
notes: see m39
B9: anti-IL-6 Fab, heavy chain V48Q (Fab, V domains shown)
VH: B1 VH with V48Q, D63T
VL: B1 VL
notes: see m39
B10: anti-IL-6 Fab, light chain Q89A (Fab, V domains shown)
VH: B1 VH with D63T
VL: B1 VL with Q89A
notes: see m39
B11: anti-IL-6 Fab, heavy chain T63K (Fab, V domains shown)
VH: B1 VH with D63K
VL: B1 VL
notes: see m39
B12: anti-IL-6 Fab, light chain L53R (Fab, V domains shown)
VH: B1 VH with D63T
VL: B1 VL with L53R
notes: see m39
B13: anti-IL-6 Fab, light chain I47V (Fab, V domains shown)
VH: B1 VH with D63T
VL: B1 VL with I47V
notes: see m39
B14: anti-IL-6 Fab, light chain I27F (Fab, V domains shown)
VH: B1 VH with D63T
VL: B1 VL with I27F
notes: see m39
B15: anti-IL-6 Fab, heavy chain T65Y (Fab, V domains shown)
VH: B1 VH with D63T, T65Y
VL: B1 VL
notes: see m39
B16: anti-IL-6 Fab, light chain A25T (Fab, V domains shown)
VH: B1 VH with D63T
VL: B1 VL with A25T
notes: see m39
B17: anti-IL-6 Fab, light chain S24I (Fab, V domains shown)
VH: B1 VH with D63T
VL: B1 VL with S24I
notes: see m39
B18: anti-IL-6 Fab, light chain S26H (Fab, V domains shown)
VH: B1 VH with D63T
VL: B1 VL with S26H
notes: see m39
B19: anti-IL-6 Fab, light chain A25S (Fab, V domains shown)
VH: B1 VH with D63T
VL: B1 VL with A25S
notes: see m39
B20: anti-IL-6 Fab, light chain L53W (Fab, V domains shown)
VH: B1 VH with D63T
VL: B1 VL with L53W
notes: see m39
B21: anti-IL-6 Fab, light chain I27L (Fab, V domains shown)
VH: B1 VH with D63T
VL: B1 VL with I27L
notes: see m39
B22: anti-IL-6 Fab, heavy chain V64F (Fab, V domains shown)
VH: B1 VH with D63T, V64F
VL: B1 VL
notes: see m39
B23: anti-IL-6 Fab, light chain Q89S (Fab, V domains shown)
VH: B1 VH with D63T
VL: B1 VL with Q89S
notes: see m39
B24: anti-IL-6 Fab, light chain S26G (Fab, V domains shown)
VH: B1 VH with D63T
VL: B1 VL with S26G
notes: see m39
B25: anti-IL-6 Fab, heavy chain V64A (Fab, V domains shown)
VH: B1 VH with D63T, V64A
VL: B1 VL
notes: see m39
B26: anti-IL-6 Fab, heavy chain T65G (Fab, V domains shown)
VH: B1 VH with D63T, T65G
VL: B1 VL
notes: see m39
B27: anti-IL-6 Fab, light chain L53H (Fab, V domains shown)
VH: B1 VH with D63T
VL: B1 VL with L53H
notes: see m39
B28: anti-IL-6 Fab, light chain D49E (Fab, V domains shown)
VH: B1 VH with D63T
VL: B1 VL with D49E
notes: see m39
B29: anti-IL-6 Fab, light chain A54L (Fab, V domains shown)
VH: B1 VH with D63T
VL: B1 VL with A54L
notes: see m39
B30: anti-IL-6 Fab, heavy chain W57F (Fab, V domains shown)
VH: B1 VH with W57F, D63T
VL: B1 VL
notes: see m39
B31: anti-IL-6 Fab, light chain A54Y (Fab, V domains shown)
VH: B1 VH with D63T
VL: B1 VL with A54Y
notes: see m39
B32: anti-IL-6 Fab, light chain N52S (Fab, V domains shown)
VH: B1 VH with D63T
VL: B1 VL with N52S
notes: see m39
B33: anti-IL-6 Fab, light chain A54G (Fab, V domains shown)
VH: B1 VH with D63T
VL: B1 VL with A54G
notes: see m39
B34: anti-IL-6 Fab, heavy chain T63E (Fab, V domains shown)
VH: B1 VH with D63E
VL: B1 VL
notes: see m39
B35: anti-IL-6 Fab, light chain S24P (Fab, V domains shown)
VH: B1 VH with D63T
VL: B1 VL with S24P
notes: see m39
B36: anti-IL-6 Fab, light chain M50D (Fab, V domains shown)
VH: B1 VH with D63T
VL: B1 VL with M50D
notes: see m39
B37: anti-IL-6 Fab, light chain M50E (Fab, V domains shown)
VH: B1 VH with D63T
VL: B1 VL with M50E
notes: see m39
B38: anti-IL-6 Fab, light chain M88A (Fab, V domains shown)
VH: B1 VH with D63T
VL: B1 VL with M88A
notes: see m39
B39: anti-IL-6 Fab, light chain S24V (Fab, V domains shown)
VH: B1 VH with D63T
VL: B1 VL with S24V
notes: see m39
B40: anti-IL-6 Fab, light chain S24K (Fab, V domains shown)
VH: B1 VH with D63T
VL: B1 VL with S24K
notes: see m39
B41: anti-IL-6 Fab, light chain S26K (Fab, V domains shown)
VH: B1 VH with D63T
VL: B1 VL with S26K
notes: see m39
B42: anti-IL-6 Fab, light chain L46V (Fab, V domains shown)
VH: B1 VH with D63T
VL: B1 VL with L46V
notes: see m39
B43: anti-IL-6 Fab, heavy chain T65D (Fab, V domains shown)
VH: B1 VH with D63T, T65D
VL: B1 VL
notes: see m39
B44: anti-IL-6 Fab, heavy chain T65L (Fab, V domains shown)
VH: B1 VH with D63T, T65L
VL: B1 VL
notes: see m39
B45: anti-IL-6 Fab, light chain S28E (Fab, V domains shown)
VH: B1 VH with D63T
VL: B1 VL with S28E
notes: see m39
B46: anti-IL-6 Fab, heavy chain T63Q (Fab, V domains shown)
VH: B1 VH with D63Q
VL: B1 VL
notes: see m39
B47: anti-IL-6 Fab, light chain I27W (Fab, V domains shown)
VH: B1 VH with D63T
VL: B1 VL with I27W
notes: see m39

target: recombinant human IL-6 (human, UniProt P05231 30-212); test: SPR, IL-6 on CM5 chip, Fab lysate, 25 C
Method: Three ranges of antigen density (100-150 RU, 300-400 RU, 400-600 RU) were obtained by using variable flow times for each chip channel, later blocked with ethanolamine. Supernatants of the 96-well filtered culture lysates were injected at 50 μL/min for 120 seconds. Fitting of dissociation curves (300 seconds) to single exponential decay curve was used for the determination of dissociation rates (koff). Chip surfaces were regenerated with 10 mM Glycine pH 1.7 solution injected at 50 μL/min during 60 seconds after every cycle of sample binding and dissociation.

Sequence of recombinant human IL-6 (P05231 30-212 limits assumed): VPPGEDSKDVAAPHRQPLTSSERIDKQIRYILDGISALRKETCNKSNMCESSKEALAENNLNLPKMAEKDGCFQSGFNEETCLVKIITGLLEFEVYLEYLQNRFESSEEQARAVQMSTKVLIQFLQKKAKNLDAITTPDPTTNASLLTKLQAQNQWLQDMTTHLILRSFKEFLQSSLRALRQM

Row | koff | Binder
1 | 0.00603 s⁻¹ | B1
2 | 0.00517 s⁻¹ | B2
3 | 0.00495 s⁻¹ | B3
4 | 0.00615 s⁻¹ | B4
5 | 0.00615 s⁻¹ | B5
6 | 0.0539 s⁻¹ | B6
7 | 0.00492 s⁻¹ | B7
8 | 0.00455 s⁻¹ | B8
9 | 0.0034 s⁻¹ | B9
10 | 0.00585 s⁻¹ | B10
11 | 0.00611 s⁻¹ | B11
12 | 0.005 s⁻¹ | B12
13 | 0.00493 s⁻¹ | B13
14 | 0.00594 s⁻¹ | B14
15 | 0.00574 s⁻¹ | B15
16 | 0.00479 s⁻¹ | B16
17 | 0.00412 s⁻¹ | B17
18 | 0.00427 s⁻¹ | B18
19 | 0.0048 s⁻¹ | B19
20 | 0.00501 s⁻¹ | B20
21 | 0.00593 s⁻¹ | B21
22 | 0.00684 s⁻¹ | B22
23 | 0.00601 s⁻¹ | B23
24 | 0.00394 s⁻¹ | B24

Row | koff | Binder
25 | 0.00643 s⁻¹ | B25
26 | 0.0057 s⁻¹ | B26
27 | 0.00498 s⁻¹ | B27
28 | 0.00619 s⁻¹ | B28
29 | 0.00489 s⁻¹ | B29
30 | 0.00615 s⁻¹ | B30
31 | 0.00525 s⁻¹ | B31
32 | 0.00555 s⁻¹ | B32
33 | 0.00498 s⁻¹ | B33
34 | 5.53e-05 s⁻¹ | B34
35 | 0.00397 s⁻¹ | B35
36 | 0.00458 s⁻¹ | B36
37 | 0.00476 s⁻¹ | B37
38 | 0.00479 s⁻¹ | B38
39 | 0.00416 s⁻¹ | B39
40 | 0.00416 s⁻¹ | B40
41 | 0.00441 s⁻¹ | B41
42 | 0.00503 s⁻¹ | B42
43 | 0.00614 s⁻¹ | B43
44 | 0.00592 s⁻¹ | B44
45 | 0.00451 s⁻¹ | B45
46 | 0.0057 s⁻¹ | B46
47 | 0.00569 s⁻¹ | B47
